Laboratory results reported in patent publication US20220356256A1 (published 2022).

Experiments:
Test in all cases: IF staining, CHO cells
[1] = biological target: T1, FZD3 expressed on CHO cells (UniProt Q9NPG1 23-136, limits assumed)
T1 construct: As m62
T1 sequence (looked up): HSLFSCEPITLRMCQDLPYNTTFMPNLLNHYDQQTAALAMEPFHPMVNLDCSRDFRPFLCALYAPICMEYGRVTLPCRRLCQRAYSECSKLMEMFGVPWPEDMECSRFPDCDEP

[2] = biological target: T2, FZD6 expressed on CHO cells (UniProt O60353 19-132, limits assumed)
T2 construct: As m62
T2 sequence (looked up): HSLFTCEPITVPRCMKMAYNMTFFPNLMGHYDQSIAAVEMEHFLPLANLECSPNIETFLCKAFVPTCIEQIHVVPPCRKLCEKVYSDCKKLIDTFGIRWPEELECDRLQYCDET

[3] = biological target: T3, FZD10 expressed on CHO cells (UniProt Q9ULW2 29-150, limits assumed)
T3 construct: As m62
T3 sequence (looked up): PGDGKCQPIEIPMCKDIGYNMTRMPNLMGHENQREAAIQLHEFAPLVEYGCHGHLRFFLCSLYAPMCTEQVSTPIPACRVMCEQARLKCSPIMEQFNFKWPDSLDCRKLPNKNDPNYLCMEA

binding result [1]: no binding
binding result [2]: no binding
binding result [3]: no binding
B1: Fab 5017 (Fab, V domains shown)
VH: EVQLVESGGGLVQPGGSLRLSCAASGFNLYYTDMHWVRQAPGKGLEWVASISLFFGYVSYADSVKGRFTISADTSKNTAYLQMNSLRAEDTAVYYCARYLAMDYWGQGTLVTVSS
VL: DIQMTQSPSSLSASVGDRVTITCRASQSVSSAVAWYQQKPGKAPKLLIYSASSLYSGVPSRFSGSRSGTDFTLTISSLQPEDFATYYCQQAAYHWPPLFTFGQGTKVEIKR
notes: Tested as purified Fab; also called 4A1
